Measurements published in patent EP4786494A1.
Positions count from the first letter of the chain named.

B1: antibody A1B2 (murine chimeric anti-FGFR2 antibody) (antibody, human IgG1, kappa, V domains shown)
VH: EVQLQQSGAELVRPGASVKLSCTASGFNIKDYYMHWVKQRPEQGLEWIGRIDPEDGDTEYAPKFQGKATMTADTSSNTAYLQLSSLTSEDTAVYYCTTYYYVSTYEDYWGQGTTLTVSS
VL: QIVLTQSPAIMSASLGEEITLTCSASSSVSHMHWYQQKSGTSPKLLIYSTSNLASGVPSRFSGSGSGTFYSLTISSVEAEDAADYYCHHWSSWTFGGGTKLEIKR
B2: humanized monoclonal antibody huA1B2-3 (antibody, human IgG1, kappa, V domains shown)
VH: EVQLVQSGAEVKKPGATVKISCKASGFNIKDYYMHWVQQAPGKGLEWMGRIDPEDGDTEYAEKFQGRVTITADTSTNTAYMELSSLRSEDTAVYYCTTYYYVSTYEDYWGQGTTVTVSS
VL: EIVLTQSPATLSLSPGERATLSCRASSSVSHMHWYQQKPGQAPKLLIYSTSNLASGVPARFSGSGSGTDYTLTISSLEPEDFAVYYCHHWSSWTFGGGTKVEIKR
B3: bemarituzumab (antibody, human IgG1, kappa, V domains shown)
VH: QVQLVQSGAEVKKPGSSVKVSCKASGYIFTTYNVHWVRQAPGQGLEWIGSIYPDNGDTSYNQNFKGRATITADKSTSTAYMELSSLRSEDTAVYYCARGDFAYWGQGTLVTVSS
VL: DIQMTQSPSSLSASVGDRVTITCKASQGVSNDVAWYQQKPGKAPKLLIYSASYRYTGVPSRFSGSGSGTDFTFTISSLQPEDIATYYCQQHSTTPYTFGQGTKLEIKR
B4: antibody D12D8 (murine chimeric anti-FGFR2 antibody) (antibody, human IgG1, kappa, V domains shown)
VH: QVQLQQSGAELARPGASVKLSCKASGYTFTNYGISWVKQRTGQGLEWIGEIYPRSGNTYYNEKFKGKATLTADKSSSTAYMELRSLTSEDSAVYFCARGDYSNSDYWGQGTTLTVSS
VL: DIQMTQTTSSLSASLGDRVTISCRASQDITDHLNWYQQKPDGTVKLLIYYTSRLHSGVPSRFSGSGSGTDYSLTISNLEQEDIATYFCQQGNTLPRTFGGGTKLEIKR
B5: antibody F6B6 (murine chimeric anti-FGFR2 antibody) (antibody, human IgG1, kappa, V domains shown)
VH: QVQLKQSGPGLVQPSQSLSITCTVSGFSLTNYGVHWVRQSPGKGLEWLGVIWSDGSTDYDAAFISRLSISTDNSKSQVFFKMNSLQAADTAIYYCARKGDYDYDNYAMDYWGQGTSVTVSS
VL: DVVITQSPATLSVTPGDSVSLSCRASQSISNNLHWYQQKSHESPRLLIKYASQSISGIPSRFSGSGSGTDFTLSINSVETEDFGMYFCQQSNSWPLTFGAGTKLELKR
B6: antibody G11B8 (murine chimeric anti-FGFR2 antibody) (antibody, human IgG1, kappa, V domains shown)
VH: EVQLQQSGPELVKPGASVKIPCKASGYTFTDYNMDWVKQSHGKSLEWIGDINPKNGETFYNQKFKGKATLTVDRSSNTAYMELRSLTSEDTAVYFCAKRDLNWYFDYWGQGTTLTVSS
VL: DIQMTQSSSYLSVSLGGRVTITCKASDHINNWLAWYQQKPGNAPRLLISGATSLETGVPSRFSGSGSGKDYTLSITSLQTEDVATYYCQQYWSTPWTFGGGTKLEIKR
B7: antibody H3F7-a (murine chimeric anti-FGFR2 antibody) (antibody, human IgG1, kappa, V domains shown)
VH: B6 VH with N77S
VL: B6 VL

Key:
[1] = molecular target: human FGFR2 on cells (KATO-III gastric cancer cells; SNU-16 cells; Ba/F3 cells engineered to express human FGFR2b) (human) (UniProt P21802); experiment: flow cytometry on KATO-III cells expressing human FGFR2
[2] = molecular target: human FGFR2-his protein (huFGFR2-his) (human); experiment: BLI epitope binning on FGFR2-his (HISK sensor), 200 nM antibodies; competitor: huA1B2-3
[3] = molecular target: human FGFR2-his protein (huFGFR2-his) (human); experiment: BLI epitope binning on FGFR2-his (HISK sensor), 200 nM antibodies; competitor: bemarituzumab
[4] = molecular target: human FGFR2-his protein (huFGFR2-his) (human); experiment: BLI epitope binning on FGFR2-his (HISK sensor), 200 nM antibodies; competitor: huG11B8-5

Chain of human FGFR2-his protein (huFGFR2-his) (human) (chain, as listed by the source limits assumed): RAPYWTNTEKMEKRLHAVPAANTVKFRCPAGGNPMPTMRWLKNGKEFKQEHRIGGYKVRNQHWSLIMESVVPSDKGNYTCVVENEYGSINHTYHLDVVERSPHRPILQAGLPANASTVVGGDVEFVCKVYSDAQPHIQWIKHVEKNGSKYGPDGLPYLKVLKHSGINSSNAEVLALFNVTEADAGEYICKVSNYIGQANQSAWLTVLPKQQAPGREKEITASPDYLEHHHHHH

Binder | EC50 [1] [nM] | epitope binning value (%), not given [2] [%] | epitope binning value (%), not given [3] [%] | epitope binning value (%), not given [4] [%]
B1 | 0.336 | – | – | –
B2 | – | 10.2 | 95.7 | 42.6
B3 | – | 106 | 7.8 | 36.8
B4 | 7.37 | – | – | –
B5 | 14.4 | – | – | –
B6 | 0.949 | – | – | –
B7 | 1.09 | – | – | –
